Target: DNA polymerase β (1–335 amino acids), as used in SEC and in the repair assays (UniProt P06746 1-335)
Assay: cell-based or functional assay

B1: LIG1▵N-terminal (262–919 amino acids) (domain or fragment)
chain: DPSGYNPAKNNYHPVEDACWKPGQKVPYLAVARTFEKIEEVSARLRMVETLSNLLRSVVALSPPDLLPVLYLSLNHLGPPQQGLELGVGDGVLLKAVAQATGRQLESVRAEAAEKGDVGLVAENSRSTQRLMLPPPPLTASGVFSKFRDIARLTGSASTAKKIDIIKGLFVACRHSEARFIARSLSGRLRLGLAEQSVLAALSQAVSLTPPGQEFPPAMVDAGKGKTAEARKTWLEEQGMILKQTFCEVPDLDRIIPVLLEHGLERLPEHCKLSPGIPLKPMLAHPTRGISEVLKRFEEAAFTCEYKYDGQRAQIHALEGGEVKIFSRNQEDNTGKYPDIISRIPKIKLPSVTSFILDTEAVAWDREKKQIQPFQVLTTRKRKEVDASEIQVQVCLYAFDLIYLNGESLVREPLSRRRQLLRENFVETEGEFVFATSLDTKDIEQIAEFLEQSVKDSCEGLMVKTLDVDATYEIAKRSHNWLKLKKDYLDGVGDTLDLVVIGAYLGRGKRAGRYGGFLLASYDEDSEELQAICKLGTGFSDEELEEHHQSLKALVLPSPRPYVRIDGAVIPDHWLDPSAVWEVKCADLSLSPIYPAARGLVDSDKGISLRFPRFIRVREDKQPEQATTSAQVACLYRKQSQIQNQQGEDSGSDPEDTY
- amount of ligation products after polβ dGTP:C insertion in the coupled assay, absence against presence of the N-terminal region of LIG1, earlier time points (10-60 s): ~20 fold

— publication PMC11176775, “Impact of DNA ligase 1 and IIIα interactions with APE1 and polβ on the efficiency of base excision repair pathway at the downstream steps” (The Journal of Biological Chemistry, 2024)
